Test: soluble on expression in E. coli; label from the status in PepcDB or PDB records

Sequence	soluble on expression in E. coli
MGSDKIHHHHHHMMDYFSMTSHQDTKPSAQTSQWPVPTDSVRYVIPEPIVRQLAHHPLTRELYPLAFGHYRRAAGHHMHREHHRDNLLIYCTDGKAFLNVAGEPYTVTAGDLLLLPAGVSHRYTADPDNPWTIHWVHYTGPLAEDFGQYMGFDDSTRIRHLGRQPRLLVDFNGLLSVRQTGFRARGLIHASNRLRQLLAAVPINADETSQARQAELDSLHSFMREHLEERLTLNQLAELSGLSPAHFATRYREQTGTSPIQHFLHLKVERACELLDTTSQSFADISRQLGYDDAYYFSRLFKKVMGKSPTDYRHTARH	not soluble
MSLGEPMKQEKQQFIKTDWTIDMINRRQFEKYAIDILTATKDIHRGGWVERIDNKAWQYVRVYENGDIEVLITLQIIRFHKYFDTPVWLQFNPNHLLPADYVQLDHVMKYVDHSHLTRADLANDIYNINLQRYDFGLFGVTRDIYRSLSGDLETRYWGRRKSERQIRLYDKMREMKKHGKADDIPDGITDWWRLEFQFRGGKVESWQEEVMDKMQSFHVLAVDDNDDLSEIDKAILARVNADKFDFKRVGKRYAAKIRKMVRENVGFDTTVAELSLKTFNEQKDELQRQLDSMLAKYNIGAQTEEMTAYFEEELKQTGNLDFSVVESESALERNVIRNIAKTWREENSLTHRTNTEGHHHHHH	not soluble
MSLEASVEGLDGPAATNVVNFLEPLDTRNISEARLDSDIRERTQRALRAFGYYSPQIETSYPDGMFAGDVVIAIDPGPRTHITQLDLGVDGAAGDDPAFRKALASIPLEEGDPLRHDRYDSAKTRLSTLALERGYFDAGFAQQRMEVRPWEASARLFLRMRSGPRYRFGDIRFAGSQIEEARLRRMLPFTKGDPYLAGQLAEYNQRLGQTNWFRGIAVRPRIGDERNVTRGGQWWQEATGRTPPLSSGAGLAAVRRLHGLQSTDVPVDVDLVPADRHKFETGIGYATDVGPRVQFSWEMPWLNDRGHSLSNSLYLSGPEQRFDGEYVMPLANPLRDSYRLSYGLRSLDNEDTQSLESSVELARRWEFDNDWVQELYFRTTYEDFTQADQDEQVLLLYPGISWTRTRTRQPNFPRWGDRQRLALEVSDPAWGSDARFLRARFDSQWIRTLGSDNRFVGRIGGGATATDTFDKIPPSLRFFAGGDQSVRGYSYESLSPENDDGELLGGQHMLTASAEYQRRVTGNWWGATFVDTGNAFNAWWPEELKTGAGVGVRWISPVGPVRFDIAHPFDNEEDAWRLHFAIGPEEGHHHHHH	not soluble
MGSDKIHHHHHHMALKDIISQVYRRLFNVIATVCPVRKHVVLFEAFNGKVPMDNPLYVYEALQTAHPDWKLVWSVKRQLVVEAQEKYPKLNIIPRFSAKWLLVAPVAEFWVLNARMPYWLKKNAKTTYIQTWHGTPLKRLGIDIPKVSMPGTDTSQYRQNFTAESKRWDYLIAPNQFSKDVFRRAFDFNNQFLDYGYPRNDRLVHQRQDYDAIAAIKKRIVGNKMGKVILYAPTWRDDFFIRKGMYKMNLPFSLAAVVKRLNKEDVLIIRPHYLVAESINIQGFEDNVKLCVDEDINDLYLISDLLITDYSSVMFDYAILNRPMLFYPYDLAHYQGDVRGFYFDYNKVPGPIVTNEQDFLAKLDQFLTNDGYPNETAKMMAFRTQFTEWEQGTASQRVVKLITSIDQNANNYTG	not soluble
MQDAACARRFVEAFGKRAYRRPLTPEEADAYAALFGQGSFREGVEATITHMLVSPNFLYRSELEHHHHHH	not soluble
MGSDKIHHHHHHMNTDLTLVIMAAGLGSRFGGDKQLASLGPSGEPMLVLSILSAIRSGFQRAVLVIRPELEAELTGILTQFLPANFEYHFCYQSLSDLPQDAKLADLSHRLKPWGTAHALWCARDWVKGPMAVINADDFYGDSAFASLAKGLTARPNDWMMVAYPIELTLSEHGGVNRGLCQVAQGQLRSVAEWLNIQAQDDGFVGEGPNGLAKLPLQSLVSMTCWGFSPSIFNVIKQQLTAFIEQQGQLPKSECYLPAVVQAAIEQGVPVYVDVASEPWLGVTYPQDTVWVKQKLMELLGDKTH	not soluble
MEPYIKALITDSYEQNKNFFRCRFMKNRRGDECNFVGTFSDTLTHFSIHTKVYLFECEGCTKQVVDFMDLVEHRSPSTGAICRGTVENMRQLRLERMKTIDAHRCRNVFIVGATRSEFEDYLRYKNTHGKQQSFGTPLYNDNEEEQTRHQPQQQRSSTPLAPTTPTPPPPTQAPTNHRELLLDFPLPVDFSRPPPVIPPEYFFNAPSVSQQHHQRSQYQHYAPQPQGNRTPGYVARPITPHGNPKPQNYQIGGGWNPYANPPSAKDAPATVRDNRSPSRPRGDFRRDRSQSRGAETHCQQSYQPPADPLQDRSRNGRSPPMGTHSHYGQNAKPAQNGNTSHYELRSRSRGRATVPMNANFRAGHQTGSSSRLESRSRATASVGARAPSRAPAPSSTSRETRSTRRSPSKGPSAPAYTLPFGGSTPNHEPMDLELEDPVPPPRPDRPRASTSLNTSVSQIKRNEVQTGVYNIRPQRVQDTVQKARTAVGYAGTRNRSPLREADAEEIAATEALKNRFAVKSRGTAKAKANSNRGAALLESIEPTNRKIETAEEREKKQNDLYLEKMRKIREKQRLEQEKIDDVVVDSGNLPTIAPNAAGTPPPQSVAAMLEPKEESEEDEPSTSASVPFQRRMNSPQTHATSYARRSDGKRHPSKSRSSRDDRANRRDRDRDSDGRCGDDRRRDHRSHPYERH	not soluble
GGALGGSIAFETVDAQDLLEGNQKLGMMLRSGYASASDGYLGGTSVYGLLSDHLGILVDVSGQNEDDYRGGSGEDALYTATKDRNYFAKLSLLDLEGHTLKVGATHNKSSGHYVSGSTGSDMGAPSASQKADFQVLKRDTYTLDHRYNPENPYVDIQTKIYRNERHLENRTSLLDVTSQTTGGSLKNVMTLDSGIFQHRFTLGGDYEQEKGIVENSLYENEAKTTGLFLQGLTRVEALKLHYGLRWDDYKSDFGPKTLSGDELSPNFGAEYELLSGLALFSNYSESVRAGGIIPLQWMAGITQSANFNNGEAFKPEISKQKEGGIKYSTRGVFADNDRMKLSATLFKTTIENLIDYTRSGGPSGKITKIFNQEEDLISKGYELKASWEKEAWATSLGFIHVEMEEGGEPVVVSRRKAASMGDRFVWDVSYQMTPELLLGYTLHAVDKLDDVPALYRRAGYVTHDLELQWRPASIKGLTWSLAVHNLLDKSYYEQSSFESGDSIVEEAGRDVRLAVKYKF	not soluble
MGPAKKKKKGKEKKFRRELGSWSAVELEKFIEYKAEDAGKKVIYINPKYSPQKCSRCGYVSKENRHDSVFKCKNCGFELNADLNASRNIEVIRVSEYFRLLSASQSLLFNETPLTGGAGDQRQAPKLLEHHHHHH	soluble
MVDEVAKKKSKKEKDKDSKLEKALKAQNDLIWNIKDELKKVCSTNDLKELLIFNKQQVPSGESAILDRVADGMVFGALLPCEECSGQLVFKSDAYYCTGDVTAWTKCMVKTQTPNRKEWVTPKEFREISYLKKLKVKKQDRIFPPETSASVALEHHHHHH	soluble
MSLKLLIFEYATASGIDDPEIFLEGRSMLEALLTDFRDFDVEFLLSERFADMDIGAGFRPSIIGDLDEWLQENLEGFDACIFIAAEEGMELYRLTRIVEESGVLLLGSSGDAVRTCSDKRLTYRALDGRVPLIGTYEPEEIVDVPSRLIVKPADGVACQGIRILEPGDEPDLSGDMIIQDFIEGESVSVSLLSNGEKALPLSLNRQDIIMAGSELEYNGGSAPVDHEMREDAFTVARRAVESITGLRGYVGVDLILADEPYVVEINSRITTPYIGLRRVTEANLGHLILESVLGRLPSGVKFNGTASFRKGIDGMVVEVTEGFRGYEGHHHHHH	soluble
MLLWVFEYNSVSRASWGDRVPVDKNSCACLEGGYAACLCGVAKSVKGRPVLRGVSLSVKFGEIHVLAGLNGAGKTTSLRVLVGLLSRDSGEARVLGVDPWGGGFERVKGEVGYLPEDASVYERLTGMENILFYARLYSGWRDVEELVENAVFYSGLSREDLARRAGGYSKGMKRRLLLGITLMSKPRLVVLDEPTSGVDPIASNRIKKILRGLSREGRAILVTTHDLALAEEIADRVTIIHGGSTVASGPPYRLVEEYCGETLEDAFVNIVTGGGC	soluble
MSSEYIIGRNPVIEALRSGRDINKIWIAEGAAKGQVQIVLALAKENKIILQHAPKKKLDQLVEGNHQGVIAQVAAYQYAELEDLFKVAEKRNEDPFFLILDEIEDPHNLGSIMRTADATGAHGIIIPKRRAVGLTASVAKASTGAIEYIPVARVTNLSRTIDELKERGLWIAGTDAKGKTDYRNLDGKMPIGLVIGSEGKGMSRIIGEKCDFLITLPMVGKVTSLNASVAASLLMYEVYRKRNEIGK	soluble

Source: the DeepSol protein solubility set
